Measured values published in publication PMC11711466, “Reconstitution of human DNA licensing and the structural and functional analysis of key intermediates” (Nature Communications, 2024).

Biological target: T1, human origin recognition complex hORC1-5 (human, UniProt Q13415 1-861; Q13416 1-577; Q9UBD5 1-711; O43929 1-436; O43913 1-435)
T1 construct: human origin recognition complex subunit 1 (hORC1); human origin recognition complex subunit 2 (hORC2); human origin recognition complex subunit 3 (hORC3); human origin recognition complex subunit 4 (hORC4); human origin recognition complex subunit 5 (hORC5); The Strep tag on hORC1 was kept for the pull-down; also called Strep-hORC1-5; hORC1-5WT; source: S. cerevisiae YC658, galactose-induced, …
Test: cryo-EM structure; hOCCM from a low-salt washed pre-RC reaction with ATPγS, eluted from the DNA beads with DNaseI; 6.09 Å
Conditions: both partners purified

binding result: binds
B1: human MCM5 (natural protein, UniProt P33992 1-734, looked up)
chain: MSGFDDPGIFYSDSFGGDAQADEGQARKSQLQRRFKEFLRQYRVGTDRTGFTFKYRDELKRHYNLGEYWIEVEMEDLASFDEDLADYLYKQPAEHLQLLEEAAKEVADEVTRPRPSGEEVLQDIQVMLKSDASPSSIRSLKSDMMSHLVKIPGIIIAASAVRAKATRISIQCRSCRNTLTNIAMRPGLEGYALPRKCNTDQAGRPKCPLDPYFIMPDKCKCVDFQTLKLQELPDAVPHGEMPRHMQLYCDRYLCDKVVPGNRVTIMGIYSIKKFGLTTSRGRDRVGVGIRSSYIRVLGIQVDTDGSGRSFAGAVSPQEEEEFRRLAALPNVYEVISKSIAPSIFGGTDMKKAIACLLFGGSRKRLPDGLTRRGDINLLMLGDPGTAKSQLLKFVEKCSPIGVYTSGKGSSAAGLTASVMRDPSSRNFIMEGGAMVLADGGVVCIDEFDKMREDDRVAIHEAMEQQTISIAKAGITTTLNSRCSVLAAANSVFGRWDETKGEDNIDFMPTILSRFDMIFIVKDEHNEERDVMLAKHVITLHVSALTQTQAVEGEIDLAKLKKFIAYCRVKCGPRLSAEAAEKLKNRYIIMRSGARQHERDSDRRSSIPITVRQLEAIVRIAEALSKMKLQPFATEADVEEALRLFQVSTLDAALSGTLSGVEGFTSQEDQEMLSRIEKQLKRRFAIGSQVSEHSIIKDFTKQKYPEHAIHKVLQLMLRRGEIQHRMQRKVLYRLK
notes: Subunit of m6; also called hMCM5; source: HEK293-F, co-expressed hMCM2-7; in lysate (co-purification) and purified as hMCM2-7 (Ni-NTA, StrepTrapXT)
